Earlier results as cited in patent publication US11878044B2, “Combination therapy for ischemia” (NoNO Inc., priority 2011, dated 2024).

Molecular target: binding of NMDAR 2B to PSD-95 (Homo sapiens, UniProt P78352)
Details: reported by Bach

Chain of binding of NMDAR 2B to PSD-95 (P78352 whole entry): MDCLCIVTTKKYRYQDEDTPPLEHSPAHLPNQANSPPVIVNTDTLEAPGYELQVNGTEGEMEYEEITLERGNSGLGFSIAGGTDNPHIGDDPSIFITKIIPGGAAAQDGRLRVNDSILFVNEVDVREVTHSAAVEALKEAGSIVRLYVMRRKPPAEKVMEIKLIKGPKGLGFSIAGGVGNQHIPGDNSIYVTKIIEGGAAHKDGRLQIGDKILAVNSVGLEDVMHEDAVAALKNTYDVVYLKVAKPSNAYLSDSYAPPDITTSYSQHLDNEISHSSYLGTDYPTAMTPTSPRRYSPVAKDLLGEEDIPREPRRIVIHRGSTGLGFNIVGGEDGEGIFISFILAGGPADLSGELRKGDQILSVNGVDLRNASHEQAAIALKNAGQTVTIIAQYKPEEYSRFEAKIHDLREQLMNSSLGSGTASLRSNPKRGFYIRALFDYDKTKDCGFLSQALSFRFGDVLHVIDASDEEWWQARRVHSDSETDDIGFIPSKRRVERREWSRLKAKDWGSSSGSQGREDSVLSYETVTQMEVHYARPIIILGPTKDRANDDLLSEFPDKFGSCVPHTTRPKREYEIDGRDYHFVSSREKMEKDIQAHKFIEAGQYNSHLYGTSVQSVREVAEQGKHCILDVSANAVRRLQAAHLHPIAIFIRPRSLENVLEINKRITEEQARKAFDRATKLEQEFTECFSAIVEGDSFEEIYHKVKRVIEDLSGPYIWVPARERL

Substance: IESDV
- inhibiting binding of NMDAR 2B to PSD-95: effective in inhibiting binding of NMDAR 2B to PSD-95
